# In the supplement of paper PMC9170038:
# How the values were obtained:
# [1] = tested on: K4 kissing-loop RNA reporter; experiment: apparent KD of K4 kissing-loop reporter; higher = weaker reporter binding; conditions: Eterna round: R107;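 also: bound reporter read as fluorescence of individual clusters on recovered sequencing chips by microscopy, with normalized cluster intensities fitted with a binding model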
# Protocol: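 RNA-MaP round R107: designed RNA switches with theophylline, tryptophan, arginine or FMN aptamers are transcribed on-chip within common flanks. They are titrated with a labelled K4 kissing-loop RNA reporter in RNA-MaP buffer (100 mM Tris pH 7.5, 80 mM KCl, 4 mM MgCl2), without ligand or with the indicated ligand. Median apparent KD per design.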
# [2] = tested on: MS2 coat protein; experiment: apparent KD of MS2 coat protein; designed switch direction (-1 OFF switch, 1 ON switch): -1; higher = weaker reporter binding
# Outline: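 Stalled E. coli RNA polymerase transcribed designed RNA switches on Illumina chips, which were then titrated with SNAP-549-labelled MS2 coat protein, doubling from 0.7 or 1.5 nM to 3 µM. Steps lasted from 0.8–1.5 h at the lowest concentration to 10–20 min at the highest. The apparent KD is each design's median over clusters of curve-fitted normalised fluorescence.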
# [3] = input ligand: theophylline 20 uM
# [4] = input ligand: tryptophan 2.4 mM
# [5] = Eterna round: R95, input ligand: FMN 200 uM
# [6] = Eterna round: R95, input ligand: microRNA oligo, concentration not stated
# [7] = Eterna round: R95, input ligand: none
# [8] = input ligand: microRNA oligo, concentration not stated
Sequence,apparent KD of K4 kissing-loop reporter ([1]; input ligand: FMN 200 uM) [nM],apparent KD of K4 kissing-loop reporter ([1]; input ligand: arginine 13.2 mM) [nM],apparent KD of K4 kissing-loop reporter ([1]; input ligand: none) [nM],"apparent KD of K4 kissing-loop reporter [1, 3] [nM]","apparent KD of K4 kissing-loop reporter [1, 4] [nM]",apparent KD of MS2 coat protein ([2]; input ligand: FMN 200 uM) [nM],apparent KD of MS2 coat protein ([2]; input ligand: none) [nM],other results
UGAUAGGACAGAAGGAGCGGGAGUGAUGUUCCCAAAAGGGUAAGGUGUCAAAAGACACCCUCCCAGGUAGGUCGCUGUCCUAUCU,155,191,154,175,148,–,–,–
GCCGUACGCAUGGAUACCAGUCUUUCACGACUGGACAUGGAGUGAUGUUUCGUGAUGCUAGACCCUUGGCAGCCAUGCGUACGGC,255,198,242,329,210,–,–,–
AAUAAAAUCACGGCCGCCACUGAAUAAUUGGUAAGUAGUGAUGUUACUUUACAUAUCUUAUUUAACAGGACCGGGUGAAUAUUUA [JR_ExcTryptoB_Sub008],134,92.4,116,103,131,–,–,–
UUUGGCCACAGAGAUACCAGUCAUAUCGCUCUGGAGUGAUGUUCCGGAACAUGCGGAGAAGACCCUUGGCAGCUCAUGACGGUAA [Exclusion Theophylline B GF 2],232,194,196,201,254,–,–,–
AGUGAUGUUUUUUUUAAGAGUGAUGUUUUUCGAGGACCGGUACGGCCGCCACUCGAGUGAUGAGUGAGGUGUUGUGAUGUUUAGU [cxmullin],436,314,458,504,248,–,–,–
GAAAGAAAGUAUGAUACCAGACACCCGAGUGAUGUUCGGAACAGUGUGUUGUUCUUUUAAGUCCCUUGGCAGCAUAAAAGAAAAG [whbob_SS_Theo_B_sa86],135,143,151,171,110,–,–,–
CGAACACCCUCGGCCGCCACUAGCCGUAGCCUGCGCUUGCGGAGUGAUGUUCUGAAGCAGGAUGUUAGGACCGGGAGCUACAUCC [theeternabot_sameState_KL_Trp_B_33],527,542,446,428,371,–,–,–
UAUAUAGUGACGGCCGCCACUAUAUUAAUGUUUUUGUUAGAGUGAUGUUUUGUUUUAUAUUUUUAUAGGACCGGGUUAUAUGUUA [klppxmullin],497,377,626,480,404,–,–,–
GUCCUGAGUGAUGUUCGGGUCGUUCGGGAAGGAGCGCCCGCAAGGGCAGGUAGGUCGCCCGGAUCUCUCAGGUAACUGAGAGACC [#2 Same State - Arginine A Attempt #29 (HarryS)],563,303,448,554,383,–,–,–
CUUGAAAUGACUGAUACCAGUGAAAAUAUAUGUAGUGAUGUUAUAUACUAAUUUAAUAAGCGCCCUUGGCAGCAGUAUGAAUUAU [AstrosExc-theB#17],861,516,868,764,702,–,–,–
UGAAAUCGAAUUCCGCGUGCAACGCCAGUAAAGGAUAUCAUCACACUGAGAAGGUUACGAAGCGGAGUGAUGUUCCGCUCUAUCC [theeternabot_sameState_KL_FMN_A_50],105,112,120,114,98.5,–,–,–
GGUCGAGUGAUGUUCGAUGUAAUGCAUUCAGAGGAUAUAGGAUUGGCUAGAAGGCUGAAUCGUUCUUCGAGUGAUGUUCGAGGAU [Same State FMN A GF 7],286,141,213,244,183,–,–,–
AGAUGUUCCUGGGAUACCAGUCGGAGUCUCAGAGCUCGGAGUGAUGUUCUGGGAUGUUUCGGCCCUUGGCAGCUCUGGGACUCCC [#2 Exclusion - Theophylline B Attempt #24 (HarryS)],1120,624,642,735,726,–,–,–
GAAUUUGCCGAUCAAAGUGAUGUUUUGGAUACCAGCCAUCAAGCUGGCCCUUGGCAGCCAACGUCGGCUGGCGACCGUGCGGACU [theeternabot_exclusion_KL_Theo_A_50],383,253,347,310,285,–,–,–
GGGAUGUAGUGAUGUUAUAUUGGAUGUAGACGAGGACCGGUACGGCCGCCACUCGUGAUGGCUGCUAGCACGUUUCGAUGUUUGC [ExTryptoA.Cs],410,429,424,433,330,–,–,–
CUGUUGUAGACUGAUACCAGUCUCACAGCAGAUGUGUGGGACUUAGUGAUGUUAAGUACCGACCCUUGGCAGCAGUCUACGACCU [Theo B SS t6],428,374,377,452,394,–,–,–
UGGAGUUGACGAAAAGUCAACUCCUGAGAUACCAGUGACGAAGGUCACCCUUGGCAGCUCACUGCUAGUGAUGUUGGUAGUUAAA [whbob_SS_Theo_A_w50],1050,502,797,773,829,–,–,–
"ACGCGUGGCUAGGAUAUGCAGCAAUCUAGCCAGGCAGAAGGAGCCACAUGAGGAUCACCCAUGUGGUGAUCCUC [eternacac ex6r4 sub2] (Eterna round: R97, puzzle: Exclusion 6)",–,–,–,–,–,8.21,11.2,–

Sequence,apparent KD of K4 kissing-loop reporter ([1]; input ligand: FMN 200 uM) [nM],apparent KD of K4 kissing-loop reporter ([1]; input ligand: arginine 13.2 mM) [nM],apparent KD of K4 kissing-loop reporter ([1]; input ligand: none) [nM],"apparent KD of K4 kissing-loop reporter [1, 3] [nM]","apparent KD of K4 kissing-loop reporter [1, 4] [nM]",apparent KD of MS2 coat protein ([2]; input ligand: FMN 200 uM) [nM],apparent KD of MS2 coat protein ([2]; input ligand: none) [nM],other results
UUUUAACAUGAGGAUCACCCAUGUGAGGAUAUGCUAUUUUUUUUUUUUUUUUUUUUUUGCAGAAGGCACAUUUU [My solution] (puzzle: Exclusion 1),–,–,–,–,–,–,–,"apparent KD of MS2 coat protein [2, 5]: 12.5 nM; apparent KD of MS2 coat protein [2, 6]: 526 nM; apparent KD of MS2 coat protein [2, 7]: 26 nM"
"AGCUGUGGCCGAGGAUAUCUAUCCAAUAAAACCGAAAUAUAAUCGGACAUGAGGAUCACCCAUGUAGAGAAGGCGGUCUCAGCA [Eli eng2 - 094] (Eterna round: R96, puzzle: Exclusion NG 2)",–,–,–,–,–,–,–,"apparent KD of MS2 coat protein [2, 8]: 16.4 nM"
"UAAUAGUAUGUUAGGAUAUGCUGGUCCUUGGAUCAGCAGAAGGAACAUGAGGAUCACCCAUGUAGAAUAUUUUA [Mod of JL 18 - Jieux - Brourd's mod of Exclusion 4] (Eterna round: R97, puzzle: Brourd's mod of Exclusion 4)",–,–,–,–,–,56.8,18.1,–
CAGCGGUGAGGAUAUACGUAGGUACAGAUCUGUGUGUUCCUACAUGAGGAUCACCCAUGUAGAAGGCAUGGCUG [LRO-Excl2-11] (puzzle: Exclusion 2),–,–,–,–,–,–,–,"apparent KD of MS2 coat protein [2, 6]: 37.1 nM"
"CCGCUACAUGAGGAUCACCCAUGUCAGGAUAUCGUACGUUCGUCGAAAGACGAUCGUACGAGAAGGGUGAGCGG [Eli x1 4.38] (Eterna round: R97, puzzle: Exclusion 1)",–,–,–,–,–,138,187,–
AAAAAACAAGGAUAUACAAAAAAAAAAUGUGUUAAAAAUCCACAUGAGGAUCACCCAUGUAGAAGGUGUAAAAA [JR_Exclusion2_Sub004] (puzzle: Exclusion 2),–,–,–,–,–,–,–,"apparent KD of MS2 coat protein [2, 5]: 81 nM; apparent KD of MS2 coat protein [2, 6]: 104 nM; apparent KD of MS2 coat protein [2, 7]: 172 nM"
"AUUUUAUAUGAAGGAUAUACUUAACAUGAGGAUCACCCAUGUGGUGUUGUGAGUGAGUGAGUUUAGUAGAAGGUCAAGUAUUUU [JMF's solution 55] (Eterna round: R96, puzzle: Exclusion NG 2)",–,–,–,–,–,724,396,"apparent KD of MS2 coat protein [2, 8]: 284 nM"
"UAUUAGCAAGUAAGAUCCCACAUGAGGAUCACCCAUGUGCUCGUCUUAUAAGGUACUGUGACGAGAGUCACGGUACC [Mat - Sensor, turn-off var - Eli Mod - D45] (Eterna round: R97, puzzle: Sensor, turn-off variant 1)",–,–,–,–,–,16.4,19.1,–
"CUCUAGUCAGGAUAUUAGUUGCCGCCUGGACACAAGCGGCAUGAGAAGGGACUUGAGGAUCACCCAAGUAAAAG [Tibela] (Eterna round: R97, puzzle: Exclusion 4)",–,–,–,–,–,2850,393,–
"CCACGACAUGAGGAUCACCCAUGUGAGGAUAUGGCCUGAAAAGCGUGAGCAGUUUUUAUCAGAAGGCGCGUGGG [salish99_ex1_r4_064_4A's4U's] (Eterna round: R97, puzzle: Exclusion 1)",–,–,–,–,–,63.6,31.5,–
"GAUCAACAUGAGGAUCACCCAUGUGAGGAUAUGCGAGAAUAGACUUCGGUCAGAUAGAGCAGAAGGCGCAGAUA [EX1 #3] (Eterna round: R97, puzzle: Exclusion 1)",–,–,–,–,–,63.7,37.9,–
"CGUCUGUAAGGAUAUGGUUGUAUCGACAUGAGGAUCACCCAUGUGACGUGGGACUAGUGAUUAGAAGGUACGAACG [EX5 #63] (Eterna round: R97, puzzle: Exclusion 5)",–,–,–,–,–,876,672,–
"AUAAUGUCAGGAUAUCAGUCGACUAGCUUCGGCUAGUCGACUGAGAAGGGACAUGAGGAUCACCCAUGUAGAUC [E4/18-A1] (Eterna round: R97, puzzle: Exclusion 4)",–,–,–,–,–,267,1120,–
"UCAUGAUGAUAGGAUAUCGCGCGGUGAAAUGCGCGAGAAGGAUUAACAUGAGGAUCACCCAUGUUGGUCUGUUA [Eternabot (L2) Solution 69] (Eterna round: R97, puzzle: Exclusion 6)",–,–,–,–,–,27.9,15.3,–
"CUCCUCAUGACGCCUAAAGACAUGAGGAUCACCCAUGUACAGGCUUUUUGUCGUCUUAUAAUAAAACCGAGGAUGCG [Edmate] (puzzle: Sensor v3, turn-off variant 1)",–,–,–,–,–,–,–,"apparent KD of MS2 coat protein [2, 5]: 19.2 nM; apparent KD of MS2 coat protein [2, 6]: 45.9 nM; apparent KD of MS2 coat protein [2, 7]: 20.1 nM"
AAUAACAGAGGAUAUACUGUUUUAUGUGUUUGUUGUUUUAAACAUGAGGAUCACCCAUGUAGAAGGCUGAGUAA [JMF 34] (puzzle: Exclusion 2),–,–,–,–,–,–,–,"apparent KD of MS2 coat protein [2, 6]: 21 nM"
"AAUUAAACAAGCAGAUCCCACAUGAGGAUCACCCAUGUGCUCGUCUUAUAAGGUACUGUGACGAUAGUCACGGUACC [Mat - Sensor, turn-off var - Eli Mod - D65] (Eterna round: R97, puzzle: Sensor, turn-off variant 1)",–,–,–,–,–,44.6,42.7,–
"CUGUUCCGUGUAGGAUAUGCAUAUUCUCAUUAUGCAGAAGGACAUGAGGAUCACCCAUGUAUGUUAUUAUCAUGUGUUACAUGU [Design 6] (Eterna round: R96, puzzle: Exclusion NG 1)",–,–,–,–,–,–,–,"apparent KD of MS2 coat protein [2, 8]: 22.4 nM"
